Measured values from the supplement of paper PMC7877785.
± gives the uncertainty stated by the source.

Experiment: self-splicing fitness, log relative to wild type (ln ratio); higher = more splicing; Tetrahymena group I intron in knt gene, E. coli kanamycin selection, DiMSum; sequences stand for … in CUCUCU…GGAGGGAAAAGUUAUCAGGCAUGCACCUGGUAGCUAGUCUUUAAACCAAUAGAUUGCAUCGGUUUAAAAGGCAAGACCGUCAAAUUGCGGGAAAGGGGUCAACAGCCGUUCAGUACCAAGUCUCAGGGGAAACUUUGAGAUGGCCUUGCAAAGGGUAUGGUAAUAAGCUGACGGACAUGGUCCUAACCACGCAGCCAAGUCCUAAGUCAACAGAUCUUCUGUUGAUAUGGAUGCAGUUCACAGACUAAAUGUCGGUCGGGGAAGAUGUAUUCUUCUCAUAAGAUAUAGUCGGACCUCUCCUUAAUGGGAGCUAGCGGAUGAAGUGAUGCAACACUGGAGCCGCUGGGAACUAAUUUGUAUGCGAAAGUAUAUUGAUUAGUUUUGGAGUACUCGUGGUCG
Procedure, shortened: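 The eight P1ex-region nucleotides of an intron in the knt kanamycin-resistance gene on pET-22b(+) were all randomised and the library put into E. coli BL21(DE3). Six replicate transformations were grown overnight at 37°C or 30°C on LB agar with or without 25 μg/mL kanamycin, together with 100 μg/mL carbenicillin, 50 μM IPTG and 0.2% rhamnose. Colonies were pooled and amplicon-sequenced on an Illumina HiSeq 2500. Fitness from DiMSum is the error-weighted combination of wild-type-normalised replicate fold changes, kanamycin over none.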

## CAGCAGCAAUAUUACGGCUC
30 °C
  self-splicing fitness (ln): -0.127 ± 0.081
37 °C
  self-splicing fitness (ln): -0.486 ± 0.099

## UGGUAGCAAUAUUACGCCAU
37 °C
  self-splicing fitness (ln): -1.09 ± 0.48

## UUAUAGCAAUAUUACGCCUG
30 °C
  self-splicing fitness (ln): -0.833 ± 0.4
37 °C
  self-splicing fitness (ln): -0.933 ± 0.37

## GAUUAGCAAUAUUACGGUCU
30 °C
  self-splicing fitness (ln): -3.15 ± 0.32
37 °C
  self-splicing fitness (ln): -2.07 ± 0.18

## CACCAGCAAUAUUACGACUC
30 °C
  self-splicing fitness (ln): -3.42 ± 0.21
37 °C
  self-splicing fitness (ln): -1.62 ± 0.18

## CUCAAGCAAUAUUACGACUG
30 °C
  self-splicing fitness (ln): -3.48 ± 0.17
37 °C
  self-splicing fitness (ln): -1.7 ± 0.2

## CUCAAGCAAUAUUACGUAUA
30 °C
  self-splicing fitness (ln): -3.98 ± 0.19
37 °C
  self-splicing fitness (ln): -2.59 ± 0.16

## UUGUAGCAAUAUUACGGCUA
37 °C
  self-splicing fitness (ln): 0.21 ± 0.5

## CCGAAGCAAUAUUACGUUGU
30 °C
  self-splicing fitness (ln): -4.15 ± 0.32
37 °C
  self-splicing fitness (ln): -3.37 ± 0.24

## AGAAAGCAAUAUUACGAUUA
30 °C
  self-splicing fitness (ln): -0.175 ± 0.12
37 °C
  self-splicing fitness (ln): -0.183 ± 0.15

## CGUGAGCAAUAUUACGCUGU
30 °C
  self-splicing fitness (ln): -3.2 ± 0.26
37 °C
  self-splicing fitness (ln): -2.43 ± 0.26

## ACUGAGCAAUAUUACGGCGA
30 °C
  self-splicing fitness (ln): -1.87 ± 0.099
37 °C
  self-splicing fitness (ln): -1.19 ± 0.11

## GUGAAGCAAUAUUACGCAGG
30 °C
  self-splicing fitness (ln): -1.88 ± 0.1
37 °C
  self-splicing fitness (ln): -0.654 ± 0.1

## AGAUAGCAAUAUUACGUAUU
30 °C
  self-splicing fitness (ln): -2.63 ± 0.14
37 °C
  self-splicing fitness (ln): -1.35 ± 0.12

## AGAGAGCAAUAUUACGCGCC
30 °C
  self-splicing fitness (ln): -2.58 ± 0.46

## AAAGAGCAAUAUUACGACGU
30 °C
  self-splicing fitness (ln): -1.63 ± 0.084
37 °C
  self-splicing fitness (ln): -0.555 ± 0.089

## AGGUAGCAAUAUUACGCGAG
30 °C
  self-splicing fitness (ln): -1.32 ± 0.014
37 °C
  self-splicing fitness (ln): -0.6 ± 0.032

## GGAAAGCAAUAUUACGCUCU
30 °C
  self-splicing fitness (ln): -3.11 ± 0.33

## GAUGAGCAAUAUUACGGUGC
37 °C
  self-splicing fitness (ln): -1.53 ± 0.28

## CGUUAGCAAUAUUACGGGGA
37 °C
  self-splicing fitness (ln): -2.28 ± 0.3

## CGAUAGCAAUAUUACGCUCG
37 °C
  self-splicing fitness (ln): -2.03 ± 0.47

## CAAAAGCAAUAUUACGACUG
30 °C
  self-splicing fitness (ln): -0.738 ± 0.068
37 °C
  self-splicing fitness (ln): 0.168 ± 0.099

## CGGAAGCAAUAUUACGGCGC
30 °C
  self-splicing fitness (ln): -1.89 ± 0.37
37 °C
  self-splicing fitness (ln): -0.448 ± 0.28

## GCCGAGCAAUAUUACGUACA
30 °C
  self-splicing fitness (ln): -2.85 ± 0.18
37 °C
  self-splicing fitness (ln): -1.85 ± 0.17

## GCAAAGCAAUAUUACGUUGU
30 °C
  self-splicing fitness (ln): -3.71 ± 0.15
37 °C
  self-splicing fitness (ln): -2.99 ± 0.15

## CCGCAGCAAUAUUACGCUGA
30 °C
  self-splicing fitness (ln): -3.21 ± 0.34

## AAAAAGCAAUAUUACGAUUA
30 °C
  self-splicing fitness (ln): -0.462 ± 0.067
37 °C
  self-splicing fitness (ln): 0.23 ± 0.081

## GGCCAGCAAUAUUACGGGUA
30 °C
  self-splicing fitness (ln): -0.772 ± 0.064
37 °C
  self-splicing fitness (ln): -0.783 ± 0.071

## GAGGAGCAAUAUUACGCGUA
30 °C
  self-splicing fitness (ln): -2.97 ± 0.27
37 °C
  self-splicing fitness (ln): -1.6 ± 0.37

## UUUGAGCAAUAUUACGGGAG
30 °C
  self-splicing fitness (ln): -3.55 ± 0.28
37 °C
  self-splicing fitness (ln): -1.99 ± 0.19

## GUUUAGCAAUAUUACGGAUU
30 °C
  self-splicing fitness (ln): -1.48 ± 0.097
37 °C
  self-splicing fitness (ln): -0.737 ± 0.12

## AAUGAGCAAUAUUACGGGAG
30 °C
  self-splicing fitness (ln): -2.87 ± 0.23
37 °C
  self-splicing fitness (ln): -3.53 ± 0.42

## GCCAAGCAAUAUUACGGUGA
30 °C
  self-splicing fitness (ln): -1.06 ± 0.06
37 °C
  self-splicing fitness (ln): -0.493 ± 0.065

## GCCUAGCAAUAUUACGAACU
30 °C
  self-splicing fitness (ln): -1.67 ± 0.23
37 °C
  self-splicing fitness (ln): -0.772 ± 0.23

## GAUAAGCAAUAUUACGUUGC
30 °C
  self-splicing fitness (ln): -3.38 ± 0.15
37 °C
  self-splicing fitness (ln): -2.3 ± 0.21

## AUCUAGCAAUAUUACGGCGG
30 °C
  self-splicing fitness (ln): -1.12 ± 0.083
37 °C
  self-splicing fitness (ln): -1.15 ± 0.1

## UCAUAGCAAUAUUACGACCA
30 °C
  self-splicing fitness (ln): -0.368 ± 0.34
37 °C
  self-splicing fitness (ln): -0.568 ± 0.31

## UUGUAGCAAUAUUACGUUGA
30 °C
  self-splicing fitness (ln): -2.95 ± 0.29
37 °C
  self-splicing fitness (ln): -0.294 ± 0.19

## AGCCAGCAAUAUUACGAAUU
30 °C
  self-splicing fitness (ln): -3.14 ± 0.15
37 °C
  self-splicing fitness (ln): -1.44 ± 0.11

## GCCCAGCAAUAUUACGCCUA
30 °C
  self-splicing fitness (ln): -1.9 ± 0.18
37 °C
  self-splicing fitness (ln): -0.261 ± 0.12

## CAGCAGCAAUAUUACGCCUA
30 °C
  self-splicing fitness (ln): -0.345 ± 0.076
37 °C
  self-splicing fitness (ln): 0.522 ± 0.094

## AAUCAGCAAUAUUACGCUUU
30 °C
  self-splicing fitness (ln): -0.193 ± 0.067
37 °C
  self-splicing fitness (ln): 0.378 ± 0.1

## UUACAGCAAUAUUACGGUAC
30 °C
  self-splicing fitness (ln): -3.98 ± 0.22
37 °C
  self-splicing fitness (ln): -2.26 ± 0.14

## CGGCAGCAAUAUUACGUCUC
30 °C
  self-splicing fitness (ln): -1.24 ± 0.065
37 °C
  self-splicing fitness (ln): -0.433 ± 0.086

## UUUCAGCAAUAUUACGAUGC
30 °C
  self-splicing fitness (ln): -3.68 ± 0.28
37 °C
  self-splicing fitness (ln): -2.01 ± 0.29

## GAGAAGCAAUAUUACGCAUU
30 °C
  self-splicing fitness (ln): -2.53 ± 0.12
37 °C
  self-splicing fitness (ln): -2.08 ± 0.17

## UACCAGCAAUAUUACGUAAU
30 °C
  self-splicing fitness (ln): -2.56 ± 0.097
37 °C
  self-splicing fitness (ln): -1.06 ± 0.096

## CCCGAGCAAUAUUACGUACA
30 °C
  self-splicing fitness (ln): -2.87 ± 0.19
37 °C
  self-splicing fitness (ln): -2.25 ± 0.24

## GCCCAGCAAUAUUACGUAGG
30 °C
  self-splicing fitness (ln): -2.35 ± 0.24
37 °C
  self-splicing fitness (ln): -2.15 ± 0.2

## GCUCAGCAAUAUUACGUGCA
30 °C
  self-splicing fitness (ln): -1.12 ± 0.097
37 °C
  self-splicing fitness (ln): -0.787 ± 0.1
